Experimental data: US20230257716A1 (priority 2020, published 2023)

B1: NOGGIN: recombinant human NOGGIN, BMP antagonist (protein, UniProt Q13253 28-232, looked up)
Noggin: QHYLHIRPAPSDNLPLVDLIEHPDPIFDPKEKDLNETLLRSLLGGHYDPGFMATSPPEDRPGGGGGAAGGAEDLAELDQLLRQRPSGAMPSEIKGLEFSEGLAQGKKQRLSKKLRRKLQMWLWSQTFCPVLYAWNDLGSRFWPRYVKVGSCFSKRSCSVPEGMVCKPSKSVHLTVLRWRCQRRGGQRCGWIPIQYPIISECKCSC
B2: WNT3A: exogenous WNT growth factor (R&D) (protein, UniProt P56704 19-352, looked up)
Protein Wnt-3a: SYPIWWSLAVGPQYSSLGSQPILCASIPGLVPKQLRFCRNYVEIMPSVAEGIKIGIQECQHQFRGRRWNCTTVHDSLAIFGPVLDKATRESAFVHAIASAGVAFAVTRSCAEGTAAICGCSSRHQGSPGKGWKWGGCSEDIEFGGMVSREFADARENRPDARSAMNRHNNEAGRQAIASHMHLKCKCHGLSGSCEVKTCWWSQPDFRAIGDFLKDKYDSASEMVVEKHRESRGWVETLRPRYTYFKVPTERDLVYYEASPNFCEPNPETGSFGTRDRTCNVSSHGIDGCDLLCCGRGHNARAERRREKCRCVFHWCCYVSCQECTRVYDVHTCK
B3: R-SPONDIN1: exogenous growth factor R-spondin 1 (Peprotech) (protein, UniProt Q2MKA7 21-263, looked up)
R-spondin-1: SRGIKGKRQRRISAEGSQACAKGCELCSEVNGCLKCSPKLFILLERNDIRQVGVCLPSCPPGYFDARNPDMNKCIKCKIEHCEACFSHNFCTKCKEGLYLHKGRCYPACPEGSSAANGTMECSSPAQCEMSEWSPWGPCSKKQQLCGFRRGSEERTRRVLHAPVGDHAACSDTKETRRCTVRRVPCPEGQKRRKGGQGRRENANRNLARKESKEAGAGSRRRKGQQQQQQQGTVGPLTSAGPA

How the values were obtained:
basal organoids = test: Growth factor evaluation for basal organoids after sedimentation and clonogenic culture; format: cell-based, human; details: pure basal cell cultures; EGF and Noggin together
Text: (§1) Screening exogenous growth factors in organoid culture.
Density sedimentation of basal cells. Organoid cultures within 2-3 weeks of primary plating were dissociated with 1 U/ml neutral protease (Worthington, Cat LS02100) and 100 KU of DNase I in organoid media. Basal organoids were then collected by gravity sedimentation and the supernatant was either aspirated or collected for downstream use. Basal organoids were then further fractionated on a custom Ficoll-Paque gradient (4 vol Ficoll-Paque to 1 vol PBS) and centrifuged at 300×g for 10 minutes at room temperature. The supernatant was aspirated and the organoid pellet was resuspended in 10 ml PBS in a 15 ml conical tube, collected by gravity sedimentation, and plated into ECM as described above.

[1] = system: human distal lung organoids; test: Screening exogenous growth factors in distal lung organoid culture; format: cell-based; details: single cell suspensions of distal lung, feeder-free; EGF and NOGGIN in combination
Text: as §1

AT2 organoids = test: AT2 organoid proliferation with niche factors and PORCUPINE inhibitor; details: EGF and NOGGIN together; WNT-3A and RSPONDIN-1 added exogenously
Protocol: Screening exogenous growth factors in organoid culture. Distal airway cells were isolated and plated as above with the following exceptions: ADMEM/F12 was used instead of organoid medium during elastase digestion of lung tissue, cells were serially diluted and filtered through a 40 micron cell strainer and counted with a hemocytometer. 1000 viable epithelial cells (by Trypan blue exclusion, size, and morphology) per μL ECM were plated per 5 μL Matrigel droplet per well. Base media consisted of organoid media lacking A83-01, EGF, NOGGIN, WNT3A or RSPO1. EGF (final 50 ng/ml, R&D), NOGGIN (final 100 ng/ml, R&D), WNT3A (final 100 ng/ml, R&D), RSPO1 (final 500 ng/ml, Peprotech) or the PORCUPINE inhibitor C59 (final 1μM, Biogems) were added singly or in combination to base media. Images were obtained ten days after primary plating with an inverted light microscope at 5X magnification. Each condition was plated in quadruplicate and organoid formation was quantified using the analyze particle (threshold=4902 pixels) plugin in ImageJ as previously described.

Molecule	basal organoid growth with exogenous growth factors (basal organoids)	distal lung organoid growth with exogenous growth factors [1]	clonal AT2 organoid proliferation with exogenous growth factors (AT2 organoids)
B1	sufficient for maximal growth	optimal	sufficient for clonal AT2 organoid proliferation
B2	without additive effects	without any additional growth-promoting effects	did not enhance growth
B3	without additive effects	without any additional growth-promoting effects	did not enhance growth
